# The DeepSol protein solubility set
# Assay: soluble on expression in E. coli; label from the status in PepcDB or PDB records
row,Sequence,soluble on expression in E. coli
1,MAFRQPNTKELKVIRKALSYYGSGDFLSHYALLVKEGEKKEVYGVSKELYGVIGELNPHYAGVKIGEVGRRFRFSLEGTFWLLRNSRNRVWVNERGEMLFLYGRDIFAGSVERASEFGENSIVFVCNRFDDVLGIGRSRHSSDELSNLPEDKVFVENLVDRGEYLRHQKTYLSF,not soluble
2,MPVTRPAKINTYTRIIDASLALFNEEGERNISTNHIAAHLGISPGNLYYHFRNKDEIIVQLFKRYSEALLAYLNEAVLPSDVEDSINYMAGIYDVMWEYRFLFSDVNTLLARSAELLGEHNTFTQAKVSPLLVNLLTQLNGLNIIQADQTAMNDLAVNMWMVTKYWFDFDSSLRGRTKLTEDSKARGIRRTLSLLRPYLLPEHRKKYDRKIGNGNP,soluble
3,MSLSDNRSHIEEKYQWDLTSIFPNDQTWEKEEKSLAKDLEIAVKRAGHLLDSSQSLLEITELYLALSRRLEKLYVYASMKNDQDTTVSYYQELQAKATALIAKFNQTFAFYEPEFMLLSTEKYQDFLADCPDLLPYQHFFEKLFKQKKHVLSQKEEALLAEASEIFGAAGETFEILDNADIIFPWVKDETGEEVELSHGNFISLMESKNRKVRQEAYKAMYSIYEQYQHTYAKTLQTNVKVNNFQAKIRNYKSAREAALAANFIPETVYDTLVEAVHNHLPLLQRYVKLRQNVLGLDDLKMYDIYVPLSEMDMTFTYEAALDKAEEVLAIFGRDYAERVHRAFRERWIDVRVNKGKRSGAYSGGSYDTNAFILLNWQDTLDNLFTLVHETGHSLHSTFTRENQPYVYGDYSIFLAEIASTTNENILTETLLKEATDEKQRFAILNHYLDGFKGTVFRQTQFAEFEDLIYKADQAGDVLTSDYLNNLYADLNEKYYGLSKENNPEIQYEWARIPHFYYNFYVYQYATGFAAASFLAHKIVHGNQEDKDKYLNYLKAGNSDYPLNVIAKAGLDMTESTYLDQAFKVFEERLIELEELVEKGIDEGHHHHHH,soluble
4,MGSDKIHHHHHHMRVLVINSGSSSIKYQLIEMEGEKVLCKGIAERIGIEGSRLVHRVGDEKHVIERELPDHEEALKLILNTLVDEKLGVIKDLKEIDAVGHRVVHGGERFKESVLVDEEVLKAIEEVSPLAPLHNPANLMGIKAAMKLLPGVPNVAVFDTAFHQTIPQKAYLYAIPYEYYEKYKIRRYGFHGTSHRYVSKRAAEILGKKLEELKIITCHIGNGASVAAVKYGKCVDTSMGFTPLEGLVMGTRSGDLDPAIPFFIMEKEGISPQEMYDILNKKSGVYGLSKGFSSDMRDIEEAALKGDEWCKLVLEIYDYRIAKYIGAYAAAMNGVDAIVFTAGVGENSPITREDVCSYLEFLGVKLDKQKNEETIRGKEGIISTPDSRVKVLVVPTNEELMIARDTKEIVEKIGR,not soluble
5,MGHPARMAILSFLAKQESCFFGDIHEELPIAKATVSQHLKELKDAGLIQGEIETPKVRYCINKENWELARKLFAAFLGDCKCTGTSCCG,not soluble
6,MTFLIPAYNEEKSIGPLIDRIKMLCPDSEIIVVDNNSSDRTSEIATSRGVRVIFEGKQGKANAMVAAFRNTRTEYAVMMDADLTYLPDDSRVLVEVLKAEGADVVLGSRLNGEKEDGAISRINTVGNHILSFTASILYSPVSDVCTGHWAFNRRAIRHILEEGLNYSGFELEAEMFSKLARAGLKIVEVPITYRKRSDEPKLSSFTDGFKIFRTLVLERLRLEHHHHHH,not soluble
7,MGSDKIHHHHHHMQPFSSYTVREVIKGGNSMELRSFGNTDIQVSPLGFGAGHIGSDDLSDQEASYILHQALDTGIRLFDTARGYGLSEKRLGQFLKQRRHDVVLSTKVGYDVPRTEDWTFQAVAGGIDQALLTMQTDFIDIVHLHSCSKEILAQDDVIEALERAKQAGKVRLIAYSGDREDLDYAITTGRFDSFQTSVNLYDQRALMDSVPLIHQQQKGIIAKRPIANAPWRFASRPVGQYVEPYWERAQQLDFPLEEASWLETALRFTVFEPGVTSAIIGTANPEHLVQNIRLLEKGALPAERVADLKRRFQEQDENWLQQT,not soluble
8,MLRWIVLICISLFLPLSAYADKSDCINHHCIAVIDAGSSSSRLHIYAYDLDETNTPIAIREIWNRKAVPGLPTIEHENKSVSAYMEKLFSDAPAVLMPVYFYSTAGMRLLPKTHHRNVNQLVAEWFDRQYYWRLVTARTISGTEEGIFAWLATNYQLNLFQQEPQTLAGVMDIGGASVQIVIPVVNPSFMDHEHTTTIRLYGKEFTVFSHSFLGLGQNEMGHQFFDLKFCFPEEYELPSGRQARGDAYACKDEIAILVNSVHSVSRKIKSVLAANPIEKWYILGGITFMLNDKLFSLDNQYFTNRDLISYADQNICHQKWSTLEVLYPDNLMVFNYCMLPSYLYALLVHGYGLKSYQKVNFMPNSKNIDWTLGVVLQHKQSAAALEHHHHHH,not soluble
